2 proteins from patent US20080274905A1 (TRUSTEES OF COLUMBIA UNIVERSITY IN THE CITY OF NEW YORK, published 2008) can be followed below.

Data set [1] concerns the molecule itself. The data set can be described thus: two-colour quantum dot labeling of Rdh54 complexes on DNA curtains, TIRFM colocalisation (self-association).
Data set [2] concerns the molecule itself. The experiment in a line: cryo-electron microscopy of fluorescent Rad51 (self-association into rings). The source says:
The biochemically active form of Rad51 and related recombinases is an extended helical filament bound to DNA (P8, P33). Cyro-electron microscopy was used to determine whether the fluorescently tagged version of Rad51 formed structures consistent with the known forms of the wild-type protein. First, fluorescent Rad51 was mixed with double-stranded, linearized φX174 in the presence of ATP. The reaction mixes were then applied to a carbon-coated grid, flash frozen in liquid ethane, and visualized with cryo-EM (P9). […] In addition, the protein that was not bound to the DNA molecules was present as a ring-like structure, as previously reported (P16). Rad511 and several closely related proteins, are known to form ring-like structures under various reaction conditions and it is thought that these rings contain from 6-8 monomers of protein (P13-P15, P34, P35).

B1: Rdh54 (Rad homolog 54), yeast Snf2-related homologous recombination factor (enzyme, UniProt P38086 1-958, looked up)
chain: MAVISVKPRRREKILQEVKNSSVYQTVFDSGTTQMQIPKYENKPFKPPRRVGSNKYTQLKPTATAVTTAPISKAKVTVNLKRSISAGPTLNLAKKPNNLSSNENTRYFTIMYRKPTTKKHKTWSGDGYATLKASSDKLCFYNEAGKFLGSSMLPSDSDSLFETLFKAGSNEVQLDYELKENAEIRSAKEALSQNMGNPSPPTTSTTETVPSTKNDGGKYQMPLSQLFSLNTVKRFKSVTKQTNEHMTTVPKTSQNSKAKKYYPVFDVNKIDNPIVMNKNAAAEVDVIVDPLLGKFLRPHQREGVKFMYDCLMGLARPTIENPDIDCTTKSLVLENDSDISGCLLADDMGLGKTLMSITLIWTLIRQTPFASKVSCSQSGIPLTGLCKKILVVCPVTLIGNWKREFGKWLNLSRIGVLTLSSRNSPDMDKMAVRNFLKVQRTYQVLIIGYEKLLSVSEELEKNKHLIDMLVCDEGHRLKNGASKILNTLKSLDIRRKLLLTGTPIQNDLNEFFTIIDFINPGILGSFASFKRRFIIPITRARDTANRYNEELLEKGEERSKEMIEITKRFILRRTNAILEKYLPPKTDIILFCKPYSQQILAFKDILQGARLDFGQLTFSSSLGLITLLKKVCNSPGLVGSDPYYKSHIKDTQSQDSYSRSLNSGKLKVLMTLLEGIRKGTKEKVVVVSNYTQTLDIIENLMNMAGMSHCRLDGSIPAKQRDSIVTSFNRNPAIFGFLLSAKSGGVGLNLVGASRLILFDNDWNPSVDLQAMSRIHRDGQKKPCFIYRLVTTGCIDEKILQRQLMKNSLSQKFLGDSEMRNKESSNDDLFNKEDLKDLFSVHTDTKSNTHDLICSCDGLGEEIEYPETNQQQNTVELRKRSTTTWTSALDLQKKMNEAATNDDAKKSQYIRQCLVHYKHIDPARQDELFDEVITDSFTELKDSITFAFVKPGEICLREQ
notes: also called Tid1
For the protein B1, in data set [1], the binding result is “binds”.

B2: fluorescently tagged human Rad51 (A11C Rad51 labeled with Alexa Fluor 555-maleimide) (enzyme, UniProt Q06609 1-339, looked up)
chain: MAMQMQLEANCDTSVEEESFGPQPISRLEQSGINANDVKKLEEAGFHTVEAVAYAPKKELINIKGISEAKADKILAEAAKLVPMGFTTATEFHQRRSEIIQITTGSKELDKLLQGGIETGSITEMFGEFRTGKTQICHTLAVTCQLPIDRGGGEGKAMYIDTEGTFRPERLLAVAERYGLSGSDVLDNVAYARAFNTDHQTQLLYQASAMMVESRYALLIVDSATALYRTDYSGRGELSARQMHLARFLRMLLRLADEFGVAVVITNQVVAQVDGAAMFAADPKKPIGGNIIAHASTTRLYLRKGRGETRISKIYDSPSLPEAEAMFAINADGVGDAKD
modifications: Alexa Fluor 555-maleimide on Cys 11 (A11C)
notes: also called fluorescent Rad51; Alexa Fluor 555-Rad51
For the protein B2, the binding result in data set [2] is reported as “binds”.
